One block for each substance: values may come before it. Bridges are numbered along the chain shown (N, C = ends). Where no end group is shown, it is not given here. [ ]: non-standard residue; d: D form. The star is where a group is joined. Biotin = O=C1N[C@H]2[C@H](CS[C@H]2CCCCC(=O)*)N1; R8 = C=CCCCCCC[C@@](C)(N)C(=O)O; Cba = N[C@@H](CC1CCC1)C(=O)O; S5 = C=CCCC[C@](C)(N)C(=O)O
Molecular target: T1, recombinant HDMX (amino acids 1-490 of SEQ ID NO:104) (Homo sapiens, UniProt O15151)
T1 construct: thioredoxin (N, cleaved yes); S tag (N, cleaved yes); hexahistidine (N, cleaved yes); made in house; host or cells: E. coli (inferred: pET32-LIC vector, handled as described for HDM2 in BL21(DE3))
T1 sequence (O15151 1-490): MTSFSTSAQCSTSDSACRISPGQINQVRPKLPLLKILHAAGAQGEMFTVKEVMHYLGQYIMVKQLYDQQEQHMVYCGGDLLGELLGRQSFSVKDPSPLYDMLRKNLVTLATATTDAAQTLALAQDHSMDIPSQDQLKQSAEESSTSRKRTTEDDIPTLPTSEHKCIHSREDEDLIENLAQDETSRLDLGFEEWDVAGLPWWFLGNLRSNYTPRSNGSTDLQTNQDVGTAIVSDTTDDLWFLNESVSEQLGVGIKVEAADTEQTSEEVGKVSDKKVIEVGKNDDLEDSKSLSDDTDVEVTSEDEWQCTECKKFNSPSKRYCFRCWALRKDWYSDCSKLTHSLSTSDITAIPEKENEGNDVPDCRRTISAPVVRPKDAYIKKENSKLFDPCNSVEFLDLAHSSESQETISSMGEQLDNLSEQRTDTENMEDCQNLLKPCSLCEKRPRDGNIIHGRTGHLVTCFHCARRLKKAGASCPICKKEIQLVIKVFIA
Test: Competitive streptavidin pull-down of biotinylated peptides with 1:1 recombinant HDM2/HDMX mixture, HDMX western
Format: binding
Settings: biotinylated stapled peptide, 1:1 mixture of recombinant HDM2 and HDMX

Substance: ATSP-7041 B26C (Biotin-LTF[R8]EYWAQC[S5]SAA-NH2; staple 4-11; SMILES CC(C)C[C@H](NC(=O)CCCC[C@@H]1SC[C@@H]2NC(=O)N[C@@H]21)C(=O)N[C@H](C(=O)N[C@@H](Cc1ccccc1)C(=O)N[C@]1(C)CCCCCCC=CCCC[C@@](C)(C(=O)N[C@@H](CO)C(=O)N[C@@H](C)C(=O)N[C@@H](C)C(N)=O)NC(=O)[C@H](CS)NC(=O)[C@H](CCC(N)=O)NC(=O)[C@H](C)NC(=O)[C@H](Cc2c[nH]c3ccccc23)NC(=O)[C@H](Cc2ccc(O)cc2)NC(=O)[C@H](CCC(=O)O)NC1=O)[C@@H](C)O)
HDMX versus HDM2 binding selectivity: HDMX selectivity over HDM2

Substance: ATSP-7041 B26D (Biotin-LTF[R8]EYWAQD[S5]SAA-NH2; staple 4-11; SMILES CC(C)C[C@H](NC(=O)CCCC[C@@H]1SC[C@@H]2NC(=O)N[C@@H]21)C(=O)N[C@H](C(=O)N[C@@H](Cc1ccccc1)C(=O)N[C@]1(C)CCCCCCC=CCCC[C@@](C)(C(=O)N[C@@H](CO)C(=O)N[C@@H](C)C(=O)N[C@@H](C)C(N)=O)NC(=O)[C@H](CC(=O)O)NC(=O)[C@H](CCC(N)=O)NC(=O)[C@H](C)NC(=O)[C@H](Cc2c[nH]c3ccccc23)NC(=O)[C@H](Cc2ccc(O)cc2)NC(=O)[C@H](CCC(=O)O)NC1=O)[C@@H](C)O)
HDMX versus HDM2 binding selectivity: HDMX selectivity over HDM2

Substance: ATSP-7041 B26G (Biotin-LTF[R8]EYWAQG[S5]SAA-NH2; staple 4-11; SMILES CC(C)C[C@H](NC(=O)CCCC[C@@H]1SC[C@@H]2NC(=O)N[C@@H]21)C(=O)N[C@H](C(=O)N[C@@H](Cc1ccccc1)C(=O)N[C@]1(C)CCCCCCC=CCCC[C@@](C)(C(=O)N[C@@H](CO)C(=O)N[C@@H](C)C(=O)N[C@@H](C)C(N)=O)NC(=O)CNC(=O)[C@H](CCC(N)=O)NC(=O)[C@H](C)NC(=O)[C@H](Cc2c[nH]c3ccccc23)NC(=O)[C@H](Cc2ccc(O)cc2)NC(=O)[C@H](CCC(=O)O)NC1=O)[C@@H](C)O)
HDMX versus HDM2 binding selectivity: HDMX selectivity over HDM2
HDMX versus HDM2 binding selectivity (listed as SEQ ID NO:61): selectivity to HDMX

Substance: ATSP-7041 B26K (Biotin-LTF[R8]EYWAQK[S5]SAA-NH2; staple 4-11; SMILES CC(C)C[C@H](NC(=O)CCCC[C@@H]1SC[C@@H]2NC(=O)N[C@@H]21)C(=O)N[C@H](C(=O)N[C@@H](Cc1ccccc1)C(=O)N[C@]1(C)CCCCCCC=CCCC[C@@](C)(C(=O)N[C@@H](CO)C(=O)N[C@@H](C)C(=O)N[C@@H](C)C(N)=O)NC(=O)[C@H](CCCCN)NC(=O)[C@H](CCC(N)=O)NC(=O)[C@H](C)NC(=O)[C@H](Cc2c[nH]c3ccccc23)NC(=O)[C@H](Cc2ccc(O)cc2)NC(=O)[C@H](CCC(=O)O)NC1=O)[C@@H](C)O)
HDMX versus HDM2 binding selectivity: HDMX selectivity over HDM2
HDMX versus HDM2 binding selectivity (listed as SEQ ID NO:64): selectivity to HDMX

Substance: ATSP-7041 B26N (Biotin-LTF[R8]EYWAQN[S5]SAA-NH2; staple 4-11; SMILES CC(C)C[C@H](NC(=O)CCCC[C@@H]1SC[C@@H]2NC(=O)N[C@@H]21)C(=O)N[C@H](C(=O)N[C@@H](Cc1ccccc1)C(=O)N[C@]1(C)CCCCCCC=CCCC[C@@](C)(C(=O)N[C@@H](CO)C(=O)N[C@@H](C)C(=O)N[C@@H](C)C(N)=O)NC(=O)[C@H](CC(N)=O)NC(=O)[C@H](CCC(N)=O)NC(=O)[C@H](C)NC(=O)[C@H](Cc2c[nH]c3ccccc23)NC(=O)[C@H](Cc2ccc(O)cc2)NC(=O)[C@H](CCC(=O)O)NC1=O)[C@@H](C)O)
HDMX versus HDM2 binding selectivity: HDMX selectivity over HDM2

Substance: ATSP-7041 B26P (Biotin-LTF[R8]EYWAQP[S5]SAA-NH2; staple 4-11; SMILES CC(C)C[C@H](NC(=O)CCCC[C@@H]1SC[C@@H]2NC(=O)N[C@@H]21)C(=O)N[C@H](C(=O)N[C@@H](Cc1ccccc1)C(=O)N[C@]1(C)CCCCCCC=CCCC[C@@](C)(C(=O)N[C@@H](CO)C(=O)N[C@@H](C)C(=O)N[C@@H](C)C(N)=O)NC(=O)[C@@H]2CCCN2C(=O)[C@H](CCC(N)=O)NC(=O)[C@H](C)NC(=O)[C@H](Cc2c[nH]c3ccccc23)NC(=O)[C@H](Cc2ccc(O)cc2)NC(=O)[C@H](CCC(=O)O)NC1=O)[C@@H](C)O)
HDMX versus HDM2 binding selectivity: HDMX selectivity over HDM2

Substance: ATSP-7041 B26Q (Biotin-LTF[R8]EYWAQQ[S5]SAA-NH2; staple 4-11; SMILES CC(C)C[C@H](NC(=O)CCCC[C@@H]1SC[C@@H]2NC(=O)N[C@@H]21)C(=O)N[C@H](C(=O)N[C@@H](Cc1ccccc1)C(=O)N[C@]1(C)CCCCCCC=CCCC[C@@](C)(C(=O)N[C@@H](CO)C(=O)N[C@@H](C)C(=O)N[C@@H](C)C(N)=O)NC(=O)[C@H](CCC(N)=O)NC(=O)[C@H](CCC(N)=O)NC(=O)[C@H](C)NC(=O)[C@H](Cc2c[nH]c3ccccc23)NC(=O)[C@H](Cc2ccc(O)cc2)NC(=O)[C@H](CCC(=O)O)NC1=O)[C@@H](C)O)
HDMX versus HDM2 binding selectivity: HDMX selectivity over HDM2

Substance: ATSP-7041 B26S (Biotin-LTF[R8]EYWAQS[S5]SAA-NH2; staple 4-11; SMILES CC(C)C[C@H](NC(=O)CCCC[C@@H]1SC[C@@H]2NC(=O)N[C@@H]21)C(=O)N[C@H](C(=O)N[C@@H](Cc1ccccc1)C(=O)N[C@]1(C)CCCCCCC=CCCC[C@@](C)(C(=O)N[C@@H](CO)C(=O)N[C@@H](C)C(=O)N[C@@H](C)C(N)=O)NC(=O)[C@H](CO)NC(=O)[C@H](CCC(N)=O)NC(=O)[C@H](C)NC(=O)[C@H](Cc2c[nH]c3ccccc23)NC(=O)[C@H](Cc2ccc(O)cc2)NC(=O)[C@H](CCC(=O)O)NC1=O)[C@@H](C)O)
HDMX versus HDM2 binding selectivity: HDMX selectivity over HDM2

Substance: ATSP-7041 B26T (Biotin-LTF[R8]EYWAQT[S5]SAA-NH2; staple 4-11; SMILES CC(C)C[C@H](NC(=O)CCCC[C@@H]1SC[C@@H]2NC(=O)N[C@@H]21)C(=O)N[C@H](C(=O)N[C@@H](Cc1ccccc1)C(=O)N[C@]1(C)CCCCCCC=CCCC[C@@](C)(C(=O)N[C@@H](CO)C(=O)N[C@@H](C)C(=O)N[C@@H](C)C(N)=O)NC(=O)[C@H]([C@@H](C)O)NC(=O)[C@H](CCC(N)=O)NC(=O)[C@H](C)NC(=O)[C@H](Cc2c[nH]c3ccccc23)NC(=O)[C@H](Cc2ccc(O)cc2)NC(=O)[C@H](CCC(=O)O)NC1=O)[C@@H](C)O)
HDMX versus HDM2 binding selectivity: HDMX selectivity over HDM2

Substance: ATSP-7041 B26V (Biotin-LTF[R8]EYWAQV[S5]SAA-NH2; staple 4-11; SMILES CC(C)C[C@H](NC(=O)CCCC[C@@H]1SC[C@@H]2NC(=O)N[C@@H]21)C(=O)N[C@H](C(=O)N[C@@H](Cc1ccccc1)C(=O)N[C@]1(C)CCCCCCC=CCCC[C@@](C)(C(=O)N[C@@H](CO)C(=O)N[C@@H](C)C(=O)N[C@@H](C)C(N)=O)NC(=O)[C@H](C(C)C)NC(=O)[C@H](CCC(N)=O)NC(=O)[C@H](C)NC(=O)[C@H](Cc2c[nH]c3ccccc23)NC(=O)[C@H](Cc2ccc(O)cc2)NC(=O)[C@H](CCC(=O)O)NC1=O)[C@@H](C)O)
HDMX versus HDM2 binding selectivity: HDMX selectivity over HDM2

Substance: ATSP-7041 B26W (Biotin-LTF[R8]EYWAQW[S5]SAA-NH2; staple 4-11; SMILES CC(C)C[C@H](NC(=O)CCCC[C@@H]1SC[C@@H]2NC(=O)N[C@@H]21)C(=O)N[C@H](C(=O)N[C@@H](Cc1ccccc1)C(=O)N[C@]1(C)CCCCCCC=CCCC[C@@](C)(C(=O)N[C@@H](CO)C(=O)N[C@@H](C)C(=O)N[C@@H](C)C(N)=O)NC(=O)[C@H](Cc2c[nH]c3ccccc23)NC(=O)[C@H](CCC(N)=O)NC(=O)[C@H](C)NC(=O)[C@H](Cc2c[nH]c3ccccc23)NC(=O)[C@H](Cc2ccc(O)cc2)NC(=O)[C@H](CCC(=O)O)NC1=O)[C@@H](C)O)
HDMX versus HDM2 binding selectivity: HDMX selectivity over HDM2

Substance: ATSP-7041 B26Y (Biotin-LTF[R8]EYWAQY[S5]SAA-NH2; staple 4-11; SMILES CC(C)C[C@H](NC(=O)CCCC[C@@H]1SC[C@@H]2NC(=O)N[C@@H]21)C(=O)N[C@H](C(=O)N[C@@H](Cc1ccccc1)C(=O)N[C@]1(C)CCCCCCC=CCCC[C@@](C)(C(=O)N[C@@H](CO)C(=O)N[C@@H](C)C(=O)N[C@@H](C)C(N)=O)NC(=O)[C@H](Cc2ccc(O)cc2)NC(=O)[C@H](CCC(N)=O)NC(=O)[C@H](C)NC(=O)[C@H](Cc2c[nH]c3ccccc23)NC(=O)[C@H](Cc2ccc(O)cc2)NC(=O)[C@H](CCC(=O)O)NC1=O)[C@@H](C)O)
HDMX versus HDM2 binding selectivity: HDMX selectivity over HDM2

Substance: LTF8EYWAQBXAAA (Biotin-LTF[R8]EYWAQ[Cba][S5]AAA-NH2; staple 4-11) [ATSP-7041 S28A]
HDMX versus HDM2 binding selectivity: restored dual HDM2/HDMX binding selectivity
HDMX versus HDM2 binding selectivity (listed as SEQ ID NO:79): dual-selectivity to HDMX and HDM2

HDMX versus HDM2 binding selectivity: dual-HDM2/HDMX targeting
Substance: LTF8EYWAQBXSAA [ATSP-7041, reference compound]

HDMX versus HDM2 binding selectivity (listed as SEQ ID NO:81): dual-selectivity to HDMX and HDM2
Substance: LTF8EYWEQBXEAA (LTF[R8]EYWEQ[Cba][S5]EAA-NH2; staple 4-11; not fully specified (N-terminus); printed as LTF8EYWEQBXEAA) [ATSP-7041 A24E/S28E]
HDMX versus HDM2 binding selectivity: restored dual HDM2/HDMX binding selectivity
